Values joined by “and” are separate entries in the source; they are usually repeats but may differ in a detail not shown here. Equal values may be shown once.
Tests used:
[1] = molecular target: T1, human CD40 on cells (BJAB B cell line, human PBMCs, CD20+ B cells, tonsil B cells, monocyte-derived dendritic … (human, UniProt P25942 21-277)); assay: cell-based or functional assay
[2] = molecular target: T1, human CD40 on cells (BJAB B cell line, …); assay: cell-based or functional assay; remark: listed apart in the source
[3] = molecular target: T1, human CD40 on cells (BJAB B cell line, …); assay: cell-based or functional assay; remark: listed apart in the source
[4] = molecular target: human CD40 (Biacore antigen) (human, UniProt P25942 21-193, limits assumed); assay: Biacore (SPR); format not described
[5] = molecular target: T1, human CD40 on cells (BJAB B cell line, …); assay: flow cytometry on BJAB cells, normalized median fluorescence [left panel (Experiment 68_09]
Experimental: (§1) Flow cytometry was used, in order to compare the binding of the different anti-CD40 antibody Fc variants in their binding to human BJAB cells. Therefore, 2×10⁵ cells were seeded per well in a 96-well V-bottom plate. The plates were washed twice with 200 μL of FACS buffer (PBS, 5% FCS, 2 mM EDTA) for 2 min at 4° C. at 1350×g. Supernatants were discarded and cells were resuspended in […] FACS buffer containing 8% human serum (InVitromex, Cat. No. S4190) and incubated for 10 min. After two washes anti-human CD40 Fc variants were added in 50 μL FACS buffer with 1% human serum starting at a concentration of 10 μg/mL in a 1:2 dilution. Cells were incubated for 30 min on ice followed by two washing steps. 50 μL of polyclonal rabbit anti-human IgG FITC, F(ab′)2 (DAKO, Cat. No. F 0315) were added to each well and incubated for 30 min on ice. At the end of the incubation cells were washed twice, resuspended in 100 μL FACS buffer and acquired on a FACS Cantoll.
(§2) After acquisition the mean fluorescence intensity of the FITC channel was acquired in FloJo.Graphing and curve fitting was performed with GraphPad Prism 5.0. Due to changing intensities between individual experiments, values were normalized. Therefore, the highest value of each antibody test series was equaled 100%. Non-linear curve fittings were performed with the percent values.
(§3) To compare the curves of the different experiments, the highest median fluorescence intensity of each individual dose-titration was set to 100% binding and a non-linear curve fitting was applied. […] No changes in the binding capabilities of the variants could be observed with the different mutations of the Fc binding region of Chir12.12.

[6] = molecular target: T1, human CD40 on cells (BJAB B cell line, …); assay: flow cytometry on BJAB cells, normalized median fluorescence [right panel (Experiment 72_09]
Experimental: as §1, §2, §3

[7] = molecular target: T1, human CD40 on cells (BJAB B cell line, …); assay: cell-based or functional assay; remark: listed apart in the source
[8] = molecular target: T2, Rhesus CD40 on CD20+ B cells / PBMCs (Rhesus, UniProt F6SNI1 21-278); assay: cell-based or functional assay
[9] = molecular target: T3, Cynomolgus CD40 on CD20+ B cells / PBMCs (Cynomolgus, UniProt G7PG38 21-278); assay: cell-based or functional assay
[10] = molecular target: T1, human CD40 on cells (BJAB B cell line, …); assay: cell-based or functional assay; remark: listed apart in the source
[11] = molecular target: T2, Rhesus CD40 on CD20+ B cells / PBMCs; assay: cell-based or functional assay; remark: listed apart in the source
[12] = molecular target: T1, human CD40 on cells (BJAB B cell line, …); assay: flow cytometry on human CD20+ B cells
Experimental: (§4) PBMCs (rhesus, cynomolgus or human) or tonsil B cells (human only) were incubated at 4° C. for 30 min with purified labeled mAb1 or isotype control antibodies in dose response (final concentration range 2.5 μg/ml-0.00125 μg/ml). Cells were subsequently washed prior to being incubated with an anti-human (non-human primate cross-reactive) and a biotinylated anti-human IgG antibody with minimal cross-reactivity to NHPs (R10; note that it was possible to distinguish membrane IgG expressing human B cells either by including an anti-IgM stain or via differential intensity of FACS staining). Cells were again incubated at 4° C. for 30 min prior to being washed and subject to final staining with streptavidin-FITC for 20 min at 4° C. Cells were subsequently washed and evaluation of CD40 expression on CD20+ cells was performed by flow cytometry.

[13] = molecular target: T3, Cynomolgus CD40 on CD20+ B cells / PBMCs; assay: flow cytometry on Cynomolgus CD20+ B cells
Experimental: as §4

[14] = molecular target: T2, Rhesus CD40 on CD20+ B cells / PBMCs; assay: flow cytometry on Rhesus CD20+ B cells (n = 6)
Experimental: as §4

T1 sequence (P25942 21-277 limits assumed): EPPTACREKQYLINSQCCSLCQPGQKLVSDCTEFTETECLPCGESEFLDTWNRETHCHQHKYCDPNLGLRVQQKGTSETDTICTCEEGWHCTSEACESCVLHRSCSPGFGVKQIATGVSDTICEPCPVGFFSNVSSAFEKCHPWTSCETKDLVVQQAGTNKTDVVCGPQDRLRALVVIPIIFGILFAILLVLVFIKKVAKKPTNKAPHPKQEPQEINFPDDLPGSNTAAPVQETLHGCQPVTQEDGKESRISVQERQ
T3 sequence (G7PG38 entry or part of it limits assumed): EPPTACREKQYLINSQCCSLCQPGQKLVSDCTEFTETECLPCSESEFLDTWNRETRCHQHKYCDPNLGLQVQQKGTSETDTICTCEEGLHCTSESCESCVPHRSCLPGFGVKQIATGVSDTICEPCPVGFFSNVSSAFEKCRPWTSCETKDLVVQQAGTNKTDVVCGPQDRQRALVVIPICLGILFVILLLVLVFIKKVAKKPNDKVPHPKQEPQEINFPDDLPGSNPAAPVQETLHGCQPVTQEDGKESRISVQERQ
T2 sequence (F6SNI1 entry or part of it limits assumed): as the sequence (G7PG38 entry or part of it limits assumed) above, with Q70R, T92M, V207A, P220L counted along it
Chain of human CD40 (Biacore antigen) (P25942 21-193 limits assumed): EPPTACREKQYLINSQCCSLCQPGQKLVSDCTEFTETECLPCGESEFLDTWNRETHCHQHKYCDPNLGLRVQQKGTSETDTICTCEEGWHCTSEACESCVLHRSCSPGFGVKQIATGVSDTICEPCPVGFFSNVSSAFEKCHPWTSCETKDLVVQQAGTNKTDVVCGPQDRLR

B1: Chir12.12 (antibody, human IgG1, kappa)
heavy: not shown
light: DIVMTQSPLSLTVTPGEPASISCRSSQSLLYSNGYNYLDWYLQKPGQSPQVLISLGSNRASGVPDRFSGSGSGTDFTLKISRVEAEDVGVYYCMQARQTPFTFGPGTKVDIRRTVAAPSVFIFPPSDEQLKSGTASVVCLLNNFYPREAKVQWKVDNALQSGNSQESVTEQDSKDSTYSLSSTLTLSKADYEKHKVYACEVTHQGLSSPVTKSFNRGEC
notes: also called Chir12.12 (wt Fc); parental anti-CD40 antibody
IC50 for inhibition of CD40L-mediated proliferation of PBMCs [1]: 0.176 µg/mL | IC50 for the inhibition of TNF alpha release from human MoDCs stimulated with MegaCD40L, average [2]: 0.036 µg/mL | IC50 for the inhibition of TNF alpha release from human MoDCs stimulated with MegaCD40L, experiment #2 [2]: 0.041 µg/mL | IC50 for the inhibition of TNF alpha release from human MoDCs stimulated with MegaCD40L, experiment #3 [2]: 0.03 µg/mL | Agonist activity on huPBMCs (EC50, ng/ml) [3]: > 10000 ng/mL | CD40L inhibition - huPBMCs (IC50, ng/ml) [3]: 13 ng/mL | Kd [4]: 0.55 nM | EC50 (read off the curve) [5]: ~0.1 µg/mL | EC50 (read off the curve) [6]: ~0.3 µg/mL

B2: mAb1 (antibody, human IgG1, kappa, N297A)
heavy: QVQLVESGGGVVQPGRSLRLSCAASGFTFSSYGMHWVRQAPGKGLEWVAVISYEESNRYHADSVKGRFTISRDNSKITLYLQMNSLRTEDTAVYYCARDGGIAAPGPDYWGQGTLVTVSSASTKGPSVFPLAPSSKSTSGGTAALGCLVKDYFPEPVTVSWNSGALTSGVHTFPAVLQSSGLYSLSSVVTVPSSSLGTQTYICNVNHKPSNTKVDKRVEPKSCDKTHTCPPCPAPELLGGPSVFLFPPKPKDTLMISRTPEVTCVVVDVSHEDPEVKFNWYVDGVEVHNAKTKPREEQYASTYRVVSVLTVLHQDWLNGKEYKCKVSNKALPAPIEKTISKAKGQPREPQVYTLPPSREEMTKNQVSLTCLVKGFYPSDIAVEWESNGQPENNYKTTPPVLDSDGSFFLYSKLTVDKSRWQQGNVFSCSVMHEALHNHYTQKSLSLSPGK
light: B1 light
notes: Fc-silent IgG1 variant of Chir12.12 with N297A (aglycosylated); same VH/VL as Chir12.12; also called mAb1 (N297A)
IC50 for inhibition of CD40L-mediated proliferation of PBMCs [1]: 0.058 µg/mL | IC50 for the inhibition of TNF alpha release from human MoDCs stimulated with MegaCD40L, average [2]: 0.04 µg/mL | IC50 for the inhibition of TNF alpha release from human MoDCs stimulated with MegaCD40L, experiment #1 [2]: 0.023 µg/mL | IC50 for the inhibition of TNF alpha release from human MoDCs stimulated with MegaCD40L, experiment #2 [2]: 0.044 µg/mL | IC50 for the inhibition of TNF alpha release from human MoDCs stimulated with MegaCD40L, experiment #3 [2]: 0.058 µg/mL | Agonist activity on huPBMCs (EC50, ng/ml) [3]: > 10000 ng/mL | CD40L inhibition - huPBMCs (IC50, ng/ml) [3]: 15 ng/mL | CD154 inhibition (IC50, µg/ml), CD154+IL-4 induced proliferation of human tonsil B cells [7]: 0.058 µg/mL and 0.075 µg/mL | CD154 inhibition (IC50, µg/ml), CD154+IL-4 induced proliferation of Rhesus PBMCs (n = 6) [8]: 0.03 µg/mL | CD154 inhibition (IC50, µg/ml), CD154+IL-4 induced proliferation of Cynomolgus PBMCs [9]: 0.015 µg/mL and 0.02 µg/mL | IC50 in the functional inhibition test (soluble CD154 + IL4-induced proliferation, human tonsil B cells) [10]: 0.067 µg/mL | IC50 in the functional inhibition test (soluble CD154 + IL4-induced proliferation, rhesus PBMCs) [11]: 0.0255 µg/mL | Kd [4]: 0.69 nM | EC50 [12]: 0.26 µg/mL and 0.28 µg/mL | EC50 [13]: 0.3 µg/mL and 0.24 µg/mL | EC50 [14]: 0.22 µg/mL | EC50 (read off the curve) [5]: ~0.3 µg/mL | EC50 (read off the curve) [6]: ~0.5 µg/mL

B3: mAb3 (antibody, human IgG1, kappa, L234A L235A)
heavy: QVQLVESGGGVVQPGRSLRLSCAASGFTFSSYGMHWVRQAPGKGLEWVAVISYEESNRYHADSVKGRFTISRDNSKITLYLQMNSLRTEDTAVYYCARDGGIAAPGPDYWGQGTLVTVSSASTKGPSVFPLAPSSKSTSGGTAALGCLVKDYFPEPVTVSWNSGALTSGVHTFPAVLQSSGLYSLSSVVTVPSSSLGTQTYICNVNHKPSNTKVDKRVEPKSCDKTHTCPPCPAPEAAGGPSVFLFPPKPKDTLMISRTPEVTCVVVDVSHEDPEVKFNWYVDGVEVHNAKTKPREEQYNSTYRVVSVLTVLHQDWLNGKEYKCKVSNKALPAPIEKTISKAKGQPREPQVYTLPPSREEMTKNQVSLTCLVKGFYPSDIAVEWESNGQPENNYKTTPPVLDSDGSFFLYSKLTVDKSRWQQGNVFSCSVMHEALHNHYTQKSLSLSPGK
light: B1 light
notes: IgG1 variant of Chir12.12 with L234A/L235A; same VH/VL as Chir12.12; also called mAb3 (LALA); LALA mutant
IC50 for inhibition of CD40L-mediated proliferation of PBMCs [1]: 0.118 µg/mL | IC50 for the inhibition of TNF alpha release from human MoDCs stimulated with MegaCD40L, average [2]: 0.032 µg/mL | IC50 for the inhibition of TNF alpha release from human MoDCs stimulated with MegaCD40L, experiment #1 [2]: 0.039 µg/mL | IC50 for the inhibition of TNF alpha release from human MoDCs stimulated with MegaCD40L, experiment #2 [2]: 0.008 µg/mL | IC50 for the inhibition of TNF alpha release from human MoDCs stimulated with MegaCD40L, experiment #3 [2]: 0.047 µg/mL | Agonist activity on huPBMCs (EC50, ng/ml) [3]: > 10000 ng/mL | CD40L inhibition - huPBMCs (IC50, ng/ml) [3]: 15 ng/mL | Kd [4]: 0.33 nM | EC50 (read off the curve) [5]: ~0.1 µg/mL | EC50 (read off the curve) [6]: ~0.2 µg/mL

B4: mAb2 (antibody, human IgG1, kappa)
heavy: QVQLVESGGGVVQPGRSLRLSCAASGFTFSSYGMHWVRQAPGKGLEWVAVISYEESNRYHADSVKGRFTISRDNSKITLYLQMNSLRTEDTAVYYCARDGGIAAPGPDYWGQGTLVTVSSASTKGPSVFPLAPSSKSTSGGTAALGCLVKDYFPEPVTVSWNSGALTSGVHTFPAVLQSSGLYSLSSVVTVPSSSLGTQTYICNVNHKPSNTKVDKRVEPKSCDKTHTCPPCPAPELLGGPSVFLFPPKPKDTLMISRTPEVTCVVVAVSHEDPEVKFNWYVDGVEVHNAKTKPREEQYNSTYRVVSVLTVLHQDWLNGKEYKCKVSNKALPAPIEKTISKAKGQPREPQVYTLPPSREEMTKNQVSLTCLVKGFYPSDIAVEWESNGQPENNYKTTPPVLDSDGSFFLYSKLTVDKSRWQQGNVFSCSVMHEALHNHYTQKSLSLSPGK
light: B1 light
notes: Fc-silent IgG1 variant of Chir12.12 with D265A; same VH/VL as Chir12.12; also called mAb2 (D265A)
IC50 for inhibition of CD40L-mediated proliferation of PBMCs [1]: 0.146 µg/mL | IC50 for the inhibition of TNF alpha release from human MoDCs stimulated with MegaCD40L, average [2]: 0.033 µg/mL | IC50 for the inhibition of TNF alpha release from human MoDCs stimulated with MegaCD40L, experiment #1 [2]: 0.041 µg/mL | IC50 for the inhibition of TNF alpha release from human MoDCs stimulated with MegaCD40L, experiment #2 [2]: 0.012 µg/mL | IC50 for the inhibition of TNF alpha release from human MoDCs stimulated with MegaCD40L, experiment #3 [2]: 0.042 µg/mL | Agonist activity on huPBMCs (EC50, ng/ml) [3]: > 10000 ng/mL | CD40L inhibition - huPBMCs (IC50, ng/ml) [3]: 17 ng/mL | Kd [4]: 0.49 nM

Source: patent US20160152721A1 (Novartis, published 2016)
